{"source": "paper PMC6380599", "about": "(PLoS Pathogens, 2019)", "binders": {"B1": {"name": "Ab10 IgG1 antibody (antibody, V domains shown)", "VH": "EVQLVESGGGVVQPGRSLRLSCAASGFTFSGYGIHWVRQAPGKGLEWVALISYDGSNKYYADSVKGRFTISRDNSKNTLYLQMNSLRAEDTAVYYCAKDRDYFGSGFFDYWGQGTLVTVSS", "VL": "ELVMTQSPSSLSASVGDTVTITCRASQSIYTYLNWYHQTPGKAPKLLISAASSLQSGVPSRFSGSGSGTDFTLTISSLQPEDFATYYCQQYADVPVTFGGGTKLEIK", "notes": "also called Ab10 mAb; human IgG1 monoclonal antibody Ab10; source: HEK 293F, transfected, purified from culture supernatant (MabSelect)"}}, "biological_target": "T1, histidine tagged SFTSV Gn-Cκ (Gn ectodomain, strain Gangwon/Korea/2012) (SFTSV (Dabie bandavirus) strain …, UniProt U3GR55, strain)", "T1 construct": "source: HEK 293F or Expi293F, transfected, purified", "assay": "SPR; Biacore T200, […]; dissociation 5 min in PBS with 0.005% Tween20", "settings": "both partners purified"}
{"binder": "B1", "values": [{"measurement": "Kd", "result": 0.104, "unit": "nM"}, {"measurement": "koff", "result": "7.7e-05", "unit": "s⁻¹"}, {"measurement": "kon", "result": 740000, "unit": "M⁻¹ s⁻¹"}]}
